Patent US20020001806A1, “Caspase-3s splicing variant” (priority 2000, published 2002)
Entries after “also recorded” stand apart in the source; their conditions may differ.

B1: caspase-3s: novel splicing variant of caspase-3, C-terminal truncated, 182 amino acids (SEQ ID No. 2); tested as transfected pcDNA3 cDNA construct (protein, listed as Homo sapiens)
chain: MENTENSVDSKSIKNLEPKIIHGSESMDSGISLDNSYKMDYPEMGLCIIINNKNFHKSTGMTSRSGTDVDAANLRETFRNLKYEVRNKNDLTREEIVELMRDVSKEDHSKRSSFVCVLLSHGEEGIIFGTNGPVDLKKITNFFRGDRCRSLTGKPKLFIIQVIILGEIQRMAPGSSSRFVPC
B2: caspase-3: full length caspase-3 (32 kDa) cDNA in pcDNA3 vector transfected into 293 cells (protein, UniProt P42574 1-277, looked up)
chain: MENTENSVDSKSIKNLEPKIIHGSESMDSGISLDNSYKMDYPEMGLCIIINNKNFHKSTGMTSRSGTDVDAANLRETFRNLKYEVRNKNDLTREEIVELMRDVSKEDHSKRSSFVCVLLSHGEEGIIFGTNGPVDLKKITNFFRGDRCRSLTGKPKLFIIQACRGTELDCGIETDSGVDDDMACHKIPVEADFLYAYSTAPGYYSWRNSKDGSWFIQSLCAMLKQYADKLEFMHILTRVNRKVATEFESFSFDATFHAKKQIPCIVSMLTKELYFYH
modifications: full-length
notes: full length caspase-3 (32 kDa) cDNA in pcDNA3 vector transfected into 293 cells

Legend:
Type in all cases: cell-based, human
[1] = test system: caspase-3 and caspase-3s expression; assay: Western blot (anti-flag) of recombinant caspase-3 and caspase-3s in transfected 293 cells after IGAL treatment; conditions: IGAL treatment 16 hours
Protocol: (§1) FIG. 6. A. 293 cells were transfected with flag-tagged caspase-3, flag-tagged caspase-3s or pcDNA3 vector, followed by IGAL treatment for 16 hours or left untreated (control). Fifty microgram of total cellular protein was assayed for caspase-3 and caspase-3s expression using antibody specific for flag-tag. The asterisk (*) indicates the N-terminal flag-tag containing activated capase-3 (20 kDa). The uppermost and lowest short arrow denote the two additional bands, 40 kDa and 14 kDa, respectively. […] 293 cells were treated with 5 μM IGAL for 48 hours. Total cell lysates were isolated and assayed for caspase-3 expression by Western blotting. The blot was probed with anticaspase-3 antibody (Pharmingen). […]
Proteasome appears to regulate caspase-3 potentially in two ways. […] To examine the effects of proteasome inhibitor on the expression of caspase-3 and caspase-3s, total cellular protein from transfected 293 cells treated with proteasome inhibitor IGAL were analyzed by Western blotting probed with the N-terminal antiflag antibody. […] In addition, we reproducibly detected two additional bands with a size of 40 kDa and 14 kDa, respectively, after IGAL treatment (FIG. 6B, lane 6). […]

[2] = test system: endogenous caspase-3; assay: Western blot (anti-caspase-3) of endogenous caspase-3 in untransfected 293 cells after IGAL treatment; conditions: 5 μM IGAL, 48 hours
Protocol: as §1
Evidence that the levels of endogenous caspase-3 and caspase-3s are regulated by proteasome degradation was also sought. Untransfected 293 cells were subjected to IGAL treatment and the cell samples were analyzed on Western blots probed with anticapase-3 antibody (Pharmingen). […] In parallel, a faint immunoreactive band of 20 kDa (p20) was detected only in the presence of IGAL treatment (FIG. 6B).

[3] = test system: 293 cells; assay: Cytotox 96 colorimetric LDH release cytotoxicity assay in transfected 293 cells; conditions: for apoptosis / cell death (LDH release) induced by proteasome inhibitor I: 5 μM proteasome inhibitor I, 12 hours, vs vector
Protocol: The following experiments were performed to test the hypothesis that caspase-3s acts as a dominant negative isoform of caspase-3. The pcDNA empty vector, caspase-3, and caspase-3s constructs were transfected into 293 cells using the method described above (Sun et al., Supra., 1997). After 6 to 7 hours transfection, transfection medium was replaced with fresh medium containing 5 μM of proteasome inhibitor I (Z-Ile-Glu(otBu)-Ala-Leu-CHO) (Calbiochem). Cells were then incubated for 12 hours. Twenty-five microliter of the culture medium was subjected to cytotoxicity assay using the Cytotox 96 colorimetric LDH assay kit (Promega) according to manufacturer's instruction. Statistics were performed with t-test using Microsoft Excel analysis tools.
For control cells, lactate dehydrogenase (LDH) release in caspase-3 transfected cells was compared with both vector and caspase-3s transfected cells. For proteasome inhibitor treated cells, LDH release was compared between vector and caspase-3s transfected cells.

[4] = test system: PARP; assay: PARP cleavage to 85 kDa breakdown product by Western blot in transfected 293 cells; conditions: for PARP cleavage (Western blot): IGAL treatment 16 hours, vs vector control; for PARP breakdown product (85 kDa), densitometric quantification: normalized to vector control, n=8
Protocol: (§2) Human embryonal kidney 293 cells were seeded 1×10^5 into each well of a 24-well plate and transfected with caspase-3 and caspase-3s cDNA constructs by calcium phosphate method (Sun Y., Bian J., Wang Y., Jacobs C. Oncogene 1997;14:385-93;14: 385-393). Briefly, 500 nanogram of DNA was incubated in 0.25 M CaCl2 solution for 10 minutes at room temperature. The mixture was then incubated with 1×HEPES buffer (pH 6.88) for 15 minutes at room temperature before being added to the culture medium. After 6 to 7 hours transfection, transfection medium was replaced with fresh Opti-MEMI medium (GIBCO) containing 5 μM of Proteasome Inhibitor I (Z-Ile-Glu(otBu)-Ala-Leu-CHO) (Calbiochem) and incubated for 16 hours. For staurosporine treatment, cells were allowed to grow for 24 hours in serum containing medium after transfection. Cells then incubated with 0.5 μM staurosporine (Calbiochem) in Opti-MEMI medium for 20 hours.
Preparation of whole cell lysates and Western blotting were performed as previously described (McGinnis K. M., Gnegy M. E., Wang K. K. W. Endogenous bax translocation in SH-SY5Y human neuroblastoma cells and cerebellar granule neurons undergoing apoptosis. J. Neurochem. 1999;72:1899-1906; Huang Y., Domann F. E. Transcription factor AP-2 mRNA and DNA binding activity are constitutively expressed in SV40-immortalized but not normal human lung fibroblasts. Arch. Biochem. Biophys. 1999;364: 241-246). The blots were probed with antihuman caspase-3 p20 goat polyclonal antibody (Santa Cruz, CAT #sc-1226), antihuman caspase-3 rabbit polyclonal antibody (Pharmingen, CAT #65906E), antiflag monoclonal antibody (Sigma, CAT #F3165), or antihuman monoclonal PAPR antibody (Biomol Research Laboratories, Inc CAT #SA-250).
It is known that cleavage of caspase-3 substrates, such as poly(ADP)ribose polymerase (PARP), is prerequisite for apoptosis. Therefore, the effects of caspase-3s overexpression on PARP cleavage in both control and IGAL treated 293 was examined, along with caspase-3 overexpression as positive control. Cleavage of PARP to an immunoreactive breakdown product (85 kDa) was measured by Western blot.

[5] = test system: 293 cells; assay: DNA fragmentation ELISA (Cell Death Detection ELISA) in transfected 293 cells; conditions: for apoptosis induced by staurosporine (DNA fragmentation): 0.5 μM staurosporine, 20 hours; for DNA fragmentation (basal apoptosis): untreated, vs vector and caspase-3s
Protocol: as §2
DNA fragmentation ELISA was performed using the Cell Death Detection ELISA kit (Boehringer Mannheim) following the instruction provided by the supplier. Briefly, after 16 hours treatment with IGAL (Proteasome Inhibitor I), 293 cells were lysed by incubation with 500 μL of cell lysis buffer for 2 hours at room temperature. The lysate were then centrifuged at 200×g for 10 minutes. Twenty microliter of the supernatant were transferred into the streptavidin coated microtiter plate for analysis using the reagents provided with the assay kit. Statistical analyses were performed with student t-test using Microsoft Excel analysis tools.

Row | Molecule | amount of recombinant caspase-3s ([1]; flag-tagged caspase-3s transfected 293 cells) | abundance of recombinant full length caspase-3 (32 kDa band) ([1]; flag-tagged caspase-3 transfected 293 cells) | endogenous activated caspase-3 (p17) [2] | levels of endogenous full-length caspase-3 (p32) [2] | apoptosis / cell death (LDH release) induced by proteasome inhibitor I [3] | apoptosis / cell death (LDH release) induced by proteasome inhibitor I ([3]; listed as Caspase-3s) | PARP cleavage (Western blot) [4] | PARP cleavage (Western blot) ([4]; listed as Caspase-3s) | PARP breakdown product (85 kDa), densitometric quantification [4] | apoptosis induced by staurosporine (DNA fragmentation) [5] | DNA fragmentation (apoptosis) induced by IGAL ([5]; 5 μM IGAL, 16 hours, vs vector control and caspase-3, n=4) | apoptosis (LDH release) ([3]; untreated condition, vs vector and caspase-3s transfected cells) | basal PARP cleavage (Western blot) ([4]; nontreated) | DNA fragmentation (basal apoptosis) [5] | DNA fragmentation (basal apoptosis) ([5]; listed as capase-3)
1 | Z-Ile-Glu(otBu)-Ala-Leu-CHO [IGAL] | dramatic increase | decrease in the abundance | appearance of the 17 kDa activated caspase-3 (p17) | remain the same; also recorded: stabilized endogenous caspase-3 expression | – | – | – | – | – | – | – | – | – | – | –
2 | B1 | – | – | – | – | significantly inhibited; also recorded: inhibits apoptotic cell death | inhibits cell death | partially but significantly inhibited the cleavage of PARP | partially inhibited PARP cleavage | significantly decreased | no significant effect | partially but significantly inhibited apoptosis; also recorded: significantly (# p<0.05) inhibited DNA fragmentation | – | – | – | –
3 | B2 | – | – | – | – | underwent substantial apoptosis | – | enhanced by IGAL treatment | – | increased PARP cleavage | did not reduce | – | significantly increased apoptosis | increased basal PARP cleavage | significantly increased DNA fragmentation | induced basal apoptosis
